Changes are numbered by the printed parent chain.
Tests used:
Dpo4 Y108W-K329C-CPM = molecular target: T1, Dpo4 Y108W-K329C-CPM (Sulfolobus solfataricus, UniProt Q97W02 1-352, C31S;Y108W;K329C); test: stopped-flow FRET
T1 sequence: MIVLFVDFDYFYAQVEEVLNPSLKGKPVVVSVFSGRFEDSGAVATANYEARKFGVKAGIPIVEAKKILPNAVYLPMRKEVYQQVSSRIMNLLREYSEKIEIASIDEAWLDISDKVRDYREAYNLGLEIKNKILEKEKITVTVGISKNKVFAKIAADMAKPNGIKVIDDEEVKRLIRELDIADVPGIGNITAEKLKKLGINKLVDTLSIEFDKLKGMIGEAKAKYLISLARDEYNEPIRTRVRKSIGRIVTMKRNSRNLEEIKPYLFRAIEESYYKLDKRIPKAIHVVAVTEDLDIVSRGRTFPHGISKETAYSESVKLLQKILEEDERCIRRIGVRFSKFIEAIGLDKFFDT

Dpo4 Y108W = molecular target: T2, Dpo4 Y108W (Sulfolobus solfataricus, UniProt Q97W02 1-352, C31S;Y108W); test: steady-state Trp fluorescence
T2 sequence: T1 sequence with C329K

Dpo4 Y274W = molecular target: T3, Dpo4 Y274W (Sulfolobus solfataricus, UniProt Q97W02 1-352, C31S;Y274W); test: steady-state Trp fluorescence
T3 sequence: T1 sequence with W108Y, Y274W, C329K

Measured: binding result

B1: DNAOH 21/30-mer (dsDNA)
DNA 1: CGAGCCGTCGCATCCTACCGC
DNA 2: GATGCTGCAGCGGTAGGATGCGACGGCTCG
binds: Dpo4 Y108W-K329C-CPM | Dpo4 Y108W | Dpo4 Y274W
